According to article PMC8815974, “Mechanistic Insight Into Cadmium- and Zinc-Induced Inactivation of the Candida albicans Pif1 Helicase”:

T1: CaPif1 (Candida albicans, UniProt Q59RQ0 1-906)
T1 sequence: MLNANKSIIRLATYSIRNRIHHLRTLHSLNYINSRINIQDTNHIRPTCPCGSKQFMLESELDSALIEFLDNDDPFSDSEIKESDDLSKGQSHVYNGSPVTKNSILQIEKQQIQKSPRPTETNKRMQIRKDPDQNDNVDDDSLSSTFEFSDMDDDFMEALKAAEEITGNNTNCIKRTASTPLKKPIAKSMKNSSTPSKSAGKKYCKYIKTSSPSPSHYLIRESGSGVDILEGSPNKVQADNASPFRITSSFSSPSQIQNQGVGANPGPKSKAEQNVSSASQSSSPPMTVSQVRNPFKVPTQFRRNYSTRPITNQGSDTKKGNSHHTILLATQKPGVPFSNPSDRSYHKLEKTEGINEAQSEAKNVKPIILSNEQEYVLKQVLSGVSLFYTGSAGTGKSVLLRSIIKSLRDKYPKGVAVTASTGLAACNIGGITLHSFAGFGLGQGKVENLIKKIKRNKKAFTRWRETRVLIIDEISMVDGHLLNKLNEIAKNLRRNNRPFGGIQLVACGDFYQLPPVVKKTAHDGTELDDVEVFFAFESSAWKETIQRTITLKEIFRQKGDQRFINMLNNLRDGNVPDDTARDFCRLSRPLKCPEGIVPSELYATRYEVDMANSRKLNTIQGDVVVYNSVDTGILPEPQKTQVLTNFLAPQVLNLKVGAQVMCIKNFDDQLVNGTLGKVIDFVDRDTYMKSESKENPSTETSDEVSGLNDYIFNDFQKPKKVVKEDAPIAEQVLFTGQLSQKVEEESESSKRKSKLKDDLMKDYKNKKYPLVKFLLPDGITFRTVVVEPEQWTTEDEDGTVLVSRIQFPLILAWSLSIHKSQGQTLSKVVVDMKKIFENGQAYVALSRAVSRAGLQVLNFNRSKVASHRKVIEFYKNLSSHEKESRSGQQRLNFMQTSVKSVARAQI


Target: T1, CaPif1
Experiment: EMSA; 1.5 mM Mg2+, no ATP; CaPif1 0-3000 nM; 25 mM Tris-HCl pH 7.5, 50 mM NaCl, 1.5 mM MgCl2, 1 mM DTT, 25 C; EMSA 10 nM DNA, 5 min, 6% native PAGE; FP 5 nM DNA, 10 min
Conditions: protein: recombinant, tags: none (N-terminal His-SUMO tag removed)

| Binder | binding result (label: 3'-FAM on strand 1, 5' overhang 22 nt, 21 bp duplex) | binding result (label: 3'-FAM, single strand, 40 nt) |
| --- | --- | --- |
| OhS22D21 (dsDNA) DNA 1: CTGTAGGAATGTGAAATAAAAACGATGTTTTATTTACATTGTA DNA 2: TACAATGTAAATAAAACATCG | binds | – |
| CCATGCAGCTGTCAGTCCATTGTCATGCTAGGCCTACTGC (ssDNA) [S40] | – | binds |
